Assay: yeast display, Sf9 membrane polyspecificity reagent, FACS + sequencing; frameworks hold sequencing errors
In short: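 Sorting gates, low and high (top ~1%), were placed on anti-HA fluorescence to track expression and on streptavidin fluorescence to track reagent binding. A clone's polyreactivity label is taken from the gate it came out of. The reagent was 10% biotinylated, detergent-solubilized Sf9 membrane, applied for 1 hour at 4 °C to galactose-induced yeast display cells.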

Row | Sequence | polyreactivity (PSR sort gate)
1 | QVQLVESGGGLVQAGGSLRLSCAASGRIFGRYAMGWYRPAPGKEREFVAAISKRGGGTYYADSVKGRFTISRDNAKNTVYLQMNSLKPEDTAVYYCAVDNSPGFDDYDYWGQGTQVTVSS | high polyreactivity
2 | QVQLVESGGGLVQAGGSLRLSCAASGRIFGRYAMGWYRQAPGKEREFVAAISKRGGGTYYADSVKGRFTISRDNAKNTVYLQMISLKPEDTAVYYCAVDNSPGFDDYDYWGQGTQVTVSS | high polyreactivity
3 | QVQLVESGGGLVQAGGSLRLSCAASGRIFGRYAMGWYRQAPGKERELVAAISSGGNTYYADSVKGRFTISRDNAKNTVYLQMISLKPEDTAVYYCNALYYRPPGYDYWGQGTQLTVSS | high polyreactivity
4 | QVQLVESGGGLVQAGGSLRLSCAASGRIFGRYAMGWYRQAPGKERELVAVISARGARTYYADSVKGRFTISRDNAKNTVYLQRNSLKPEDTAVYYCAVDQYATDDYWGQGTQVTVSS | high polyreactivity
5 | QVQLVESGGGLVQAGGSLRLSCAASGRIFGRYAMGWYRQAPGQERELVAGISARGGSTYYADSVKGRFTISRDNAKNTVYLQMNSLKPDDTAVYYCAAYAGFSDQAGYFYWGQGTQVTVSS | high polyreactivity
6 | QVQLVESGGGLVQAGGSLRLSCAASGRIFGSNAMGWYRQAPGKERELVAAISWRGASTYYADSVKGRFTISRDNAKNTVYLQMNSLIPEDTAVYYCFLRGRATQWDFGYWGQGTQVTVSS | high polyreactivity
7 | QVQLVESGGGLVQAGGSLRLSCAASGRIFGSYAMGWYRQAPGKERELVASISGSGTSTYYADSVKGRFTISRDNAKNTVYLQMNSLKPEDTAVYYCARYVRYYPSKFYYWGQGTQVTVSS | high polyreactivity
8 | QVQLVESGGGLVQAGGSLRLSCAASGRIFGSYVMGWYRQAPGKVRELVAAISRRGGSTYYADSVKGRFTISRDNAKNTVYLQMNSLKPEDTAVYYCAAEFSPSSNPYDYWGQGTQVTVSS | high polyreactivity
9 | QVQLVESGGGLVQAGGSLRLSCAASGRIFGTNAMGWYRQAPGKERELVAAISRGGNTYYADSVKGRFTISRDNAKNTVYLQMNSLKPEDTAVYYCAARPGSGRSYTSDYWGQGTQVTVSS | high polyreactivity
10 | QVQLVESGGGLVQAGGSLRLSCAASGRIFGTNAMGWYRQAPGKERELVAAISRSGGSTYYADSVKGRFTISRDNAKNTVYLQMNSLKPEDTAVYYCATDGRHTYYYWGQGTQVTVST | high polyreactivity
11 | QVQLVESGGGLVQAGGSLRLSCAASGRIFGTNAMGWYRQAPRKERELVADITSGGSTNYADSVKGRFTISRDNAKNTVYLQMNSLKPEDTAVYYCAADVIGDLRWYRDEYWGQVTQVTVSS | low polyreactivity
12 | QVQLVESGGGLVQAGGSLRLSCAASGRIFGTYAMGWYRQAPGKERELVAAITSSGSTNYADSVKGRFTISRDTAKKTVYLQMNSLKPEDTAVYYCAAVWVVFYYCYTVPVHYEYWGQGTQVTVSS | low polyreactivity
13 | QVQLVESGGGLVQAGGSLRLSCAASGRIFGTYTMGWYRQAPGKERELVAAITTGGITNYADSVKGRFTISRDNAKNTVYLQMNSLKPEDTAVYYCNARWDYGAYEYWGQGTQVTVSS | low polyreactivity
14 | QVQLVESGGGLVQAGGSLRLSCAASGRIFGVNAMGWYRQAPGKEREFVAVISSVGSTYYADSVKGRFTISRDNAKNTVYLQMKSLKPEDTAVYYCNAVVGRWFPYYLSDYWGQGTQVTVSS | low polyreactivity
15 | QVQLVESGGGLVQAGGSLRLSCAASGRIFGVNAMGWYRQAPGKERELVAGISISGGSTHYADSVKGRFTISRDNAKNTVYLQMNSLKPEDTAVYYCAKRFYKYVSYWHDYWGQGTQVTVSS | low polyreactivity
16 | QVQLVESGGGLVQAGGSLRLSCAASGRIFGVNAMGWYRQAPGKERELVAHIRSSGASTYYADSVKGRFTISRDNAKNTVYLQMNSLKPEDTAVYYCARDYFVDGPGYDYWGQGTQVTVSS | low polyreactivity
17 | QVQLVESGGGLVQAGGSLRLSCAASGRIFGVNAMGWYRQAPGNERELVAHIRSSGASTYYADSVKGRFTISRDNAKNTVYLQMNSLKPEDTAVYYCARDYFVDGPGYDYWGQGTQVTVSS | low polyreactivity
18 | QVQLVESGGGLVQAGGSLRLSCAASGRIFGVNAMGWYTQAPGKERELVAAIRYTGGSTYYADSVKGRFTISRDNAKNTVYLQMNSLKPEDTAVYYCAKARYTYSWSFGYWGQGTQVTVSS | low polyreactivity
19 | QVQLVESGGGLVQAGGSLRLSCAASGRIFGVYAMGWYRQAPGKDREFVASITRGGGRTYYADSVKGRFTISRDNAKNTVYLQMNSLKPEDTAVYYCNAVVNSYPYYYWGQGTQVTVSS | high polyreactivity
20 | QVQLVESGGGLVQAGGSLRLSCAASGRIFGVYAMGWYRQAPGKERELVAAISSGASTYYADSVKGRFTISRDNAKNTVYLQMNSLKPEDTAVYYCAKSVKGGTGYYYWGQGTQVTVSS | low polyreactivity
21 | QVQLVESGGGLVQAGGSLRLSCAASGRIFGVYAMGWYRQAPGKERELVATIRSSGTRTNYADSVKGRFTISRDNAKNTVYLQMNSLKPEDTAVYYCAAGGRPYKLDFTRSDYWGQGTQVTVSS | low polyreactivity
22 | QVQLVESGGGLVQAGGSLRLSCAASGRIFGWYAKGWYRQAPGKETELVAAISPGGSTKYADSVKGRFTISRDYAKNTVYLQMNSLKPEDTADYYFAADLFNYTTGRDYWGQGTQVTVSS | low polyreactivity

Row | Sequence | polyreactivity (PSR sort gate)
23 | QVQLVESGGGLVQAGGSLRLSCAASGRIFGWYAMGCYIQAPGKERELVAAISSNGGSTYYADSVKGRFTISRDNAKNTVYLQMNSLKPEDTAVYYCAAVRVFQYKYDRFNYWGQGTQVTVSS | high polyreactivity
24 | QVQLVESGGGLVQAGGSLRLSCAASGRIFGWYAMGSYRQAPGKEREFVAAITRRGGRTYYADSVKGRFTISRDNEKNNVYLQMNSLKPEDTAVYYCAVKYVRIGGVGPIVIYNYWGQGTQVTVSS | high polyreactivity
25 | QVQLVESGGGLVQAGGSLRLSCAASGRIFGWYAMGWYRQAPGKEREFVAAITVTGGSTYYADSVKGRFTISRDNAKNTVYLQMNSLKPEDTALYYCAADRWYTRTGFDYWGQVTQVTVSS | low polyreactivity
26 | QVQLVESGGGLVQAGGSLRLSCAASGRIFGWYAMGWYRQAPGKERELVAAISRGGTTYYADSVKGRFTISRDNAKNTVYLQMNSLKPEDTAVYYCAAPVPYYVPRRNEGDYWGQGTQVTVSS | low polyreactivity
27 | QVQLVESGGGLVQAGGSLRLSCAASGRIFGWYAMGWYRQAPGKERELVAAISSAGRTYYADSVKGRFTISRDNAKNTDYLQMNSLKPEDTAVYYCAAEIARSFYRYTYYYWGQGTQVTVSS | high polyreactivity
28 | QVQLVESGGGLVQAGGSLRLSCAASGRIFGYNAMGWYRHAPGTERELVAAITNGGSTNYADSVKGRFTISRDNAKNTVYLQMNSLKPEDTAVYYCAADRGGLRWFWQVLYDYWGQGTQVTVSS | low polyreactivity
29 | QVQLVESGGGLVQAGGSLRLSCAASGRIFGYNAMGWYRQAPGKERELVAAINSDGSKNYADSVKGRFTISRDNAKNTVYLQINSLNPEDTAVYYCAARWISVWSEGAEHDYWGQGTQVTVSS | low polyreactivity
30 | QVQLVESGGGLVQAGGSLRLSCAASGRIFGYNAMGWYRQAPGKERELVDAITTSGGSTYYADSVKGRFTISRDNAKNTVYLQMNSLKPEDTAVYYCARDSLQVFYPYASDDYWGQGTQVTVSS | low polyreactivity
31 | QVQLVESGGGLVQAGGSLRLSCAASGRIFGYNTMGWYRQAPGKERELVAAINSGGRTYYADSVKGRFPISRDNAKNTVYLQMNSLKPEDTAVYYCATTTYKRFYRAPTSKYDYWGQGTQVTVSS | high polyreactivity
32 | QVQLVESGGGLVQAGGSLRLSCAASGRIFGYTMGWYRQAPGKERELVAAISKSGGSTYYADSVKGRFTISRDNAKNTVYLQMNSLKPEDTAVYYCAAEYGYGKRAYDSWGQGTQVTVSS | high polyreactivity
33 | QVQLVESGGGLVQAGGSLRLSCAASGRIFGYYAMCWYRQAPGKERELVARITWYGGDTYYADSVKGRFTISRDNAKNTVYLQMNSLKPEHTAVYYCGADFVFYRQPDTYFYPHDYWGQGTQVTVTS | low polyreactivity
34 | QVQLVESGGGLVQAGGSLRLSCAASGRIFGYYAMGWYRQAPGKEREFVAGITQRTDSTYYADSVKGRFTISRDNAKNTVYLQMKSLKPEDTAVYYCAARGYGGYHWGYYWGQGTQVTVSS | high polyreactivity
35 | QVQLVESGGGLVQAGGSLRLSCAASGRIFGYYAMGWYRQAPGKERELVAAINSGSRTYYADSVKGRFTISRDNAKNTVYLQMISLKAEDTAVYDCAASVRYPPYRSSDGQRGGYWGQGTEVTVSS | high polyreactivity
36 | QVQLVESGGGLVQAGGSLRLSCAASGRIFGYYAMGWYRQAPGKERELVAAIRRSGGSTYADSVKGRFTISRDNAKNTVYLQMNSLKPEDTAVYYCAAWIYEYDYWGQGTQVTVSS | high polyreactivity
37 | QVQLVESGGGLVQAGGSLRLSCAASGRIFGYYAMGWYRQAPGKERELVAAISYRGSSTYYADSVKGRFTISRDNAKNTVYLQMNSLKPEDTAVYYCAAKGHGRTYDYWGQGTQVTVSS | high polyreactivity
38 | QVQLVESGGGLVQAGGSLRLSCAASGRIFGYYAMGWYRQAPGKERELVAAIYSGGSTYYADSVKGRFTISRDNAKNTVYLQMNSLKPEDTAVYYCAAYYYGWYTPSQSPKYDYWGQGTQVTVSS | high polyreactivity
39 | QVQLVESGGGLVQAGGSLRLSCAASGRIFGYYAMGWYRQAPGKERELVADITESGTSTYYADSVKGRFTISRDNAKNTVYLQMNSLKPEDTAVYYCAAGYWWRYALYGYWGQGTQVTVSS | low polyreactivity
40 | QVQLVESGGGLVQAGGSLRLSCAASGRIFGYYAMGWYRQAPGKERELVAGIDWSGGNTYYADSVKGRFTISRDNAKNTVYLQMNSLKPEDTAVYYCNTEGGRDTAWYDYWGQGTQVTVSS | low polyreactivity
41 | QVQLVESGGGLVQAGGSLRLSCAASGRIFGYYDMGWYRQAPGKERELVAAITWSGGSTYYADSVKGRFTISRDNAKNTVYLQMNSLKPEDTAVYYCAAEKRYRKAFDYWGQGTQVTVSS | high polyreactivity
42 | QVQLVESGGGLVQAGGSLRLSCAASGRIFGYYGRGWYRQAPGKERELVARISGRGGSTYYADSVKGRFTLSRDNAKNTVYLQINSLKPEDTAVYYCNVVFSFWQYYAYDQGDYWGQGTQVTVSS | low polyreactivity
43 | QVQLVESGGGLVQAGGSLRLSCAASGRIFGYYVMGWYRQAPGKDRELVATISRVGTTNYADSVKGRFTISRDNAKNTVYLQMNSLKPEDTAVYYCNADYTGHRGGNDYWGQGTQVTVSS | low polyreactivity

Source: the nanobody polyreactivity screen of Harvey et al. (2022)
